# Like-named read-outs stand apart in the source and are kept apart here. *1 amine or outer side, *2 acyl side, *3 side chain or, on linkers, in order; H or OH if unused. Bridges are numbered along the chain shown (N, C = ends). [ ]: non-standard residue; d: D form. Phe(4-OMe) = 4-methoxy-L-phenylalanine (O-methyl-L-tyrosine), COc1ccc(C[C@H](N[*:1])C(=O)[*:2])cc1; Phe(4-guanidino) = N=C(N)Nc1ccc(C[C@H](N)C(=O)O)cc1; Phe(4-N3) = [N-]=[N+]=Nc1ccc(C[C@H](N)C(=O)O)cc1; Phe(4-CONH2) = NC(=O)c1ccc(C[C@H](N)C(=O)O)cc1; Tyr(Ph) = N[C@@H](Cc1ccc(Oc2ccccc2)cc1)C(=O)O; Abu(4-yl) = O=C([C@H](CC[*:3])N[*:1])[*:2]; Phe(4-Br) = N[C@@H](Cc1ccc(Br)cc1)C(=O)O; Phe(4-NH2) = Nc1ccc(C[C@H](N)C(=O)O)cc1; 1Nal = N[C@@H](Cc1cccc2ccccc12)C(=O)O; 2Nal = N[C@@H](Cc1ccc2ccccc2c1)C(=O)O; AEF = NCCOc1ccc(C[C@H](N)C(=O)O)cc1; αMeK = C[C@](N)(CCCCN)C(=O)O; Abu = CC[C@H](N)C(=O)O
# T1: IL23R_huFC (human, UniProt Q5VWK5 24-353)
# T1 sequence (looked up): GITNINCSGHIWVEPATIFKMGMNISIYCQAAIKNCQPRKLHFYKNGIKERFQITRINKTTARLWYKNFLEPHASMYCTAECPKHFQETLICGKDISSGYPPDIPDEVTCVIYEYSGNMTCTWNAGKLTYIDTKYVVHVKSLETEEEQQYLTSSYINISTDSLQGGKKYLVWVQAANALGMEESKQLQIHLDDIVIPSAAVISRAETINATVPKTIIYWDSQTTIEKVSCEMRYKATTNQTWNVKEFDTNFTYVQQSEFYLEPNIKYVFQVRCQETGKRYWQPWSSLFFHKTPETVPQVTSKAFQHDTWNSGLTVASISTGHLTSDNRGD
# T2: IL-23R on human cells (IL-23R-expressing DB cells; human NK cells) (human, UniProt Q5VWK5 24-629)
# T2 sequence (looked up): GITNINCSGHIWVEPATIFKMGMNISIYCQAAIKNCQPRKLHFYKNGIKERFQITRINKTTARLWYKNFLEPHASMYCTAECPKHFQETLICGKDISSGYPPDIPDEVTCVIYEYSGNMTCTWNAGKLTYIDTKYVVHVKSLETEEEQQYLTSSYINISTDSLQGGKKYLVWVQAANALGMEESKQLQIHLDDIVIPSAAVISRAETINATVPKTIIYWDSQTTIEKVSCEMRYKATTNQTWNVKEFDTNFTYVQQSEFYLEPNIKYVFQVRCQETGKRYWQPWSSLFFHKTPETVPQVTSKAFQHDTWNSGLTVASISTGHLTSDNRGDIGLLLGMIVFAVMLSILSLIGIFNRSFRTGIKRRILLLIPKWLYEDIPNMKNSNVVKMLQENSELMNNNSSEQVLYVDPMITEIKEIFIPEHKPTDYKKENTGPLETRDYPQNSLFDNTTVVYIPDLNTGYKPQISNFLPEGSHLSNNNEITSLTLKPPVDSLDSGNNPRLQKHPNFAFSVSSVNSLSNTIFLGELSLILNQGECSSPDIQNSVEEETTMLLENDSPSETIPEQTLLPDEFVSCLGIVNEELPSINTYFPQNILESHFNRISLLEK
# What was measured:
# [1] = target: Rat IL-23R_huFC (rat); assay: rat ELISA vs IL-23
# [2] = target: Rat IL-23R_huFC (rat); assay: rat ELISA vs IL-23; remark: listed apart in the source
# [3] = target: T1, IL23R_huFC; assay: human ELISA vs IL-23
# [4] = target: T2, IL-23R on human cells …; assay: cell-based or functional assay
Binder,IC50 [1] [nM],IC50 [2] [nM],IC50 [3] [nM],pStat3 HTRF IC50 [4] [nM]
XQTWQCFXXENG (as bracketed in name; thioether cyclo) [Ac-Cyclo-[[Abu]-QTWQC]-[Phe(4-OMe)]-[2-Nal]-[α-MeOrn]-ENG-NH2],25 to 100,–,–,–
Ac-[Abu]QTWQC[Tyr(Ph)]W[αMeK]ENG-NH2 (thioether 1-6) [Ac-Cyclo-[[Abu]-QTWQC]-[Phe(4-phenoxy)]-W-[α-MeLys]-ENG-NH2],25 to 100,–,–,–
Ac-[dE][Abu]QTWQC[AEF][2Nal][αMeK]ENN-NH2 (thioether 2-7) [Ac-(D)Glu-[Cyclo-[[Abu]-QTWQC]-[Phe[4-(2-aminoethoxy)]]-[2-Nal]-[α-MeLys]-ENN-NH2],–,< 10,< 10,< 10
Ac-[Abu]QTWQC[Phe(4-guanidino)]W[αMeK]ENG-NH2 (thioether 1-6) [Ac-Cyclo-[[Abu]-QTWQC]-[Phe(4-guanidino)]-W-[α-MeLys]-ENG-NH2],25 to 100,–,–,–
XQTWQCYWXKNG (as bracketed in name; thioether cyclo) [Ac-Cyclo-[[Abu]-QTWQC-YW-[α-MeOrn]-[Lys(Ac)]-NG-NH2],25 to 100,–,–,–
Ac-[Abu]QTWQC[Phe(4-OMe)]W[αMeK]ENG-NH2 (thioether 1-6) [Ac-Cyclo-[[Abu]-QTWQC]-[Phe(4-OMe)]-W-[α-MeLys]-ENG-NH2],25 to 100,–,–,–
Ac-[Abu]QTWQC[Phe(4-OMe)][1Nal][αMeK]K(Ac)NG-NH2 (thioether 1-6) [Ac-Cyclo-[[Abu]-QTWQC]-[Phe(4-OMe)]-[1-Nal][α-MeLys]-[Lys(Ac)]-NG-NH2],25 to 100,–,–,–
Ac-[Abu]QTWQC[Phe(4-CONH2)][2Nal][αMeK]K(Ac)NG-NH2 (thioether 1-6) [Ac-Cyclo-[[Abu]-QTWQC]-[Phe(4-CONH2)]-[2-Nal][α-MeLys]-[Lys(Ac)]NG-NH2],25 to 100,–,–,–
Ac-E[Abu(4-yl)]QTWQC[AEF][2Nal][αMeK]ENN-NH2 (thioether 2-7; SMILES CC(=O)N[C@@H](CCC(=O)O)C(=O)N[C@H]1CCSC[C@@H](C(=O)N[C@@H](Cc2ccc(OCCN)cc2)C(=O)N[C@@H](Cc2ccc3ccccc3c2)C(=O)N[C@@](C)(CCCCN)C(=O)N[C@@H](CCC(=O)O)C(=O)N[C@@H](CC(N)=O)C(=O)N[C@@H](CC(N)=O)C(N)=O)NC(=O)[C@H](CCC(N)=O)NC(=O)[C@H](Cc2c[nH]c3ccccc23)NC(=O)[C@H]([C@@H](C)O)NC(=O)[C@H](CCC(N)=O)NC1=O) [Ac-E-Cyclo-[[Abu]-QTWQC]-[Phe[4-(2-aminoethoxy)]]-[2-Nal]-[α-MeLys]-ENN-NH2],–,< 10,< 10,< 10
Ac-[dR][Abu]QTWQC[AEF][2Nal][αMeK]ENN-NH2 (thioether 2-7) [Ac-[(D)Arg]-Cyclo-[[Abu]-QTWQC]-[Phe[4-(2-aminoethoxy)]]-[2-Nal]-[α-MeLys]-ENN-NH2],–,< 10,< 10,< 10
Ac-[dQ][Abu]QTWQC[AEF][2Nal][αMeK]ENN-NH2 (thioether 2-7) [Ac-[(D)Gln]-Cyclo-[[Abu]-QTWQC]-[Phe[4-(2-aminoethoxy)]]-[2-Nal]-[α-MeLys]-ENN-NH2],–,< 10,< 10,< 10
Ac-L[Abu(4-yl)]QTWQC[AEF][2Nal][αMeK]ENN-NH2 (thioether 2-7; SMILES CC(=O)N[C@@H](CC(C)C)C(=O)N[C@H]1CCSC[C@@H](C(=O)N[C@@H](Cc2ccc(OCCN)cc2)C(=O)N[C@@H](Cc2ccc3ccccc3c2)C(=O)N[C@@](C)(CCCCN)C(=O)N[C@@H](CCC(=O)O)C(=O)N[C@@H](CC(N)=O)C(=O)N[C@@H](CC(N)=O)C(N)=O)NC(=O)[C@H](CCC(N)=O)NC(=O)[C@H](Cc2c[nH]c3ccccc23)NC(=O)[C@H]([C@@H](C)O)NC(=O)[C@H](CCC(N)=O)NC1=O) [Ac-Leu-Cyclo-[[Abu]-QTWQC]-[Phe[4-(2-aminoethoxy)]]-[2-Nal]-[α-MeLys]-ENN-NH2],–,< 10,< 10,< 10
Ac-[Abu]QTWQC[Phe(4-N3)][2Nal][αMeK]K(Ac)NG-NH2 (thioether 1-6) [Ac-Cyclo-[[Abu]-QTWQC]-[Phe-4-N3]-[2-Nal]-[α-MeLys]-[Lys(Ac)]-NG-NH2],25 to 100,–,–,–
Ac-[Abu]QTWQC[Phe(4-NH2)]W[αMeK]ENG-NH2 (thioether 1-6) [Ac-Cyclo-[[Abu]-QTWQC]-[Phe(4-NH2)]-W-[α-MeLys]-ENG-NH2],25 to 100,–,–,–
Ac-[Abu]QTWQC[Phe(4-Br)]W[αMeK]ENG-NH2 (thioether 1-6) [Ac-Cyclo-[[Abu]-QTWQC]-[Phe(4-Br)] W-[α-MeLys]-ENG-NH2],25 to 100,–,–,–

# Source: patent US20190300590A1 (PROTAGONIST THERAPEUTICS, published 2019)
